{
  "source": "patent US7772181B2",
  "about": "“Personal care compositions comprising modified variant Bowman Birk Protease Inhibitors” (Danisco US Inc., priority 2008, dated 2010)",
  "note": "Marks after values point to notes of the source that are not given here.",
  "data": [
    {"target": "T1, bovine pancreatic trypsin (Bos taurus, UniProt P00760)", "T1 construct": "purchased Worthington (Worthington Biochemical Corp.)", "T1 sequence (P00760 24-246)": "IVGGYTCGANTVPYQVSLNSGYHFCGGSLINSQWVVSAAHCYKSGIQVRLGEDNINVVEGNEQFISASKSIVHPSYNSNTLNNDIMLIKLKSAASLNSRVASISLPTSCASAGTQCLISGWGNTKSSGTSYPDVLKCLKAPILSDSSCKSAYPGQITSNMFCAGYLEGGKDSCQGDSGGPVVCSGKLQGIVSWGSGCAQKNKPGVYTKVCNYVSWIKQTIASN", "test": "BBIt-AV:BCE activity ratio, microtiter plate screens (primary, quadruplicate secondary)", "format": "biochemical", "conditions": "after activation with reducing agent (2-mercaptoethanol)", "method": "(§1) The cultures in each master plate were thawed and a pin replicator was used to inoculate a new sterile microtiter plate containing 150 μl of Luria broth with 5 μg/ml chloramphenicol in each well. The plates were grown for ˜10 hrs in a humidified and aerated box as described above. For controls, the cultures in two wells were replaced with BBI and BBI-AV cultures that had been grown concurrently in 15 ml culture tubes (5 ml of Luria broth with 5 μg/ml chloramphenicol). After the cultures were grown, the plate was used to inoculate two duplicate 96-well filter plates (Millipore, MSGV2210) containing 150 μl of MBD medium (Vogtentanz et al., 2007) with 5 μg/ml chloramphenicol in each well by using a pin replicator. The duplicate plates were grown for ˜14 hours (as above, with plastic spacers placed between the stacked plates to allow for efficient air flow around the plates) and then 2-mecaptoethanol was added to each well in one of the plates to a final concentration of 2 mM. The plates were then grown for an additional ˜46 hours. The 96-well filter plates containing the culture broth (with or without added 2-mecaptoethanol) were then assayed for BBI and BCE activity.\n(§2) Libraries were analyzed using dilutions of cultures grown in 96-well plates. Typically, the culture broth from each well was diluted (200 fold) in Assay Buffer (100 mM Tris pH 8.6, 0.005% Tween 80) and transferred to a second microtiter plate (CoStar 9017, Corning, Inc., Corning, N.Y.). Then, 20 μl of the diluted samples were transferred to a third microtiter plate. A standard curve was created by adding 20, 10, 5 or 2.5 μl of the diluted sBBI (SEQ ID NO:13) control culture to empty wells. Then, 80 μL of 50 ng/ml trypsin (bovine pancreatic trypsin, Worthington Biochemical Corp., Lakewood, N.J.) (prepared from a 1 mg/mL stock solution diluted into Assay Buffer) was added to each well of the plate. The reactions were mixed and incubated 15 min at room temperature. After the incubation, 100 μL of 0.5 mg/ml trypsin substrate (succinyl-Ala-Ala-Pro-Arg-para-nitroanilide, Bachem Bioscience, Inc., King of Prussia, Pa.), diluted in Assay Buffer from a 100 mg/ml solution in DMSO, was added to each well, mixed, and the absorbance at 405 nm was monitored for 15 min, with 1 time point recorded every 12 sec using a Spectra Max 250 (Molecular Devices). The data points were used to determine the rate for each reaction. The standard curve was generated by plotting the reaction rate versus the BBI volume and was fitted to a four-parameter equation. All data fitting was done using software supplied by the manufacturer (Molecular Devices Corp., Sunnyvale, Calif.). The activity of each BBIt-AV variant was calculated from the standard curve. Thus, the activities of all modified variant proteins were determined relative to the activity in the sBBI control (BBI-WT) culture.\n(§3) The concentration of BCE was determined by an activity assay using purified BCE as a standard as described above and by (Vogtentanz et al. 2007). For the analysis of libraries grown in 96-well microtiter plates, 20 μl of culture broth were transferred to each well of a new microtiter plate. A standard curve was created by adding 20, 10, 5 or 2.5 μl of the diluted BBI-WT control culture to these empty wells. Then, 180 μl of the BCE substrate (0.25 μg/ml in Assay Buffer), 4-nitrophenyl β-D-cellobioside (Sigma, St. Louis, Mo.), was added to the plate. The plate was mixed and the absorbance at 405 nm monitored for 15 min, with 1 time point recorded every 12 s using a Spectra Max 250 (Molecular Devices Corp., Sunnyvale, Calif.). The data points were used to determine the rate for each reaction. The standard curve was generated by plotting rate versus culture volume and was fit to a quadratic curve. The BCE concentration in each variant culture was determined relative to the standard control culture. […]", "values": [
      {"molecule": "BBIt-AV-F50T: BBIt-AV (SEQ ID NO:187) with single substitution F50T (protein, synthetic BBIt-AV sequence) DDESSKPCCDQCACTKSNPPQCRCSDMRLNSCHSACKSCACYNLYGWTCTCVDITDFCYEPCKPSE", "BBIt-AV:BCE activity ratio relative to unmodified BBIt-AV": "three-fold greater"},
      {"molecule": "F50R: BBIt-AV (SEQ ID NO:187) with single substitution F50R (protein, synthetic BBIt-AV sequence) DDESSKPCCDQCACTKSNPPQCRCSDMRLNSCHSACKSCACYNLYGWTCRCVDITDFCYEPCKPSE", "BBIt-AV:BCE activity ratio relative to unmodified BBIt-AV": "best BBIt-AV:BCE-activity ratio"}
    ]},
    {"target": "T1, bovine pancreatic trypsin", "test": "BBIt-AV:BCE activity ratio, microtiter plate screens (primary, quadruplicate secondary)", "format": "biochemical", "conditions": "prior to activation", "method": "as §1, §2, §3", "values": [
      {"molecule": "BBIt-AV-F50T: BBIt-AV (SEQ ID NO:187) with single substitution F50T (protein, synthetic BBIt-AV sequence) DDESSKPCCDQCACTKSNPPQCRCSDMRLNSCHSACKSCACYNLYGWTCTCVDITDFCYEPCKPSE", "initial BBIt-AV:BCE activity ratio relative to unmodified BBIt-AV": "comparable to that of the unmodified BBIt-AV parent"}
    ]},
    {"target": "T1, bovine pancreatic trypsin", "test": "BBIt-AV:BCE activity ratio, microtiter plate screens (primary, quadruplicate secondary)", "format": "biochemical", "conditions": "single substitution in BBIt-AV, in the presence of reducing agent", "method": "as §1, §2, §3", "values": [
      {"molecule": "Q11L: BBIt-AV (SEQ ID NO:187) with single substitution Q11L (protein, synthetic BBIt-AV sequence) DDESSKPCCDLCACTKSNPPQCRCSDMRLNSCHSACKSCACYNLYGWTCFCVDITDFCYEPCKPSE", "relative activity of the amino acid substitution (BBI:BCE activity ratio vs BBIt-AV), amino acid present in BBIsb3-AV": "L (+/−)**"},
      {"molecule": "R23H: BBIt-AV (SEQ ID NO:187) with single substitution R23H (protein, synthetic BBIt-AV sequence) DDESSKPCCDQCACTKSNPPQCHCSDMRLNSCHSACKSCACYNLYGWTCFCVDITDFCYEPCKPSE", "relative activity of the amino acid substitution (BBI:BCE activity ratio vs BBIt-AV), amino acid present in BBItc-AV": "H (−)"},
      {"molecule": "A35D: BBIt-AV (SEQ ID NO:187) with single substitution A35D (protein, synthetic BBIt-AV sequence) DDESSKPCCDQCACTKSNPPQCRCSDMRLNSCHSDCKSCACYNLYGWTCFCVDITDFCYEPCKPSE", "relative activity of the amino acid substitution (BBI:BCE activity ratio vs BBIt-AV), amino acid present in BBIsb3-AV": "D (+/−)"},
      {"molecule": "S25T: BBIt-AV (SEQ ID NO:187) with single substitution S25T (protein, synthetic BBIt-AV sequence) DDESSKPCCDQCACTKSNPPQCRCTDMRLNSCHSACKSCACYNLYGWTCFCVDITDFCYEPCKPSE", "relative activity of the amino acid substitution (BBI:BCE activity ratio vs BBIt-AV), amino acid present in BBIdb-AV": "T (+/−)"},
      {"molecule": "A13M: BBIt-AV (SEQ ID NO:187) with single substitution A13M (protein, synthetic BBIt-AV sequence) DDESSKPCCDQCMCTKSNPPQCRCSDMRLNSCHSACKSCACYNLYGWTCFCVDITDFCYEPCKPSE", "relative activity of the amino acid substitution (BBI:BCE activity ratio vs BBIt-AV), amino acid present in BBIsb3-AV": "M (+)***"},
      {"molecule": "Q11R: BBIt-AV (SEQ ID NO:187) with single substitution Q11R (protein, synthetic BBIt-AV sequence) DDESSKPCCDRCACTKSNPPQCRCSDMRLNSCHSACKSCACYNLYGWTCFCVDITDFCYEPCKPSE", "relative activity of the amino acid substitution (BBI:BCE activity ratio vs BBIt-AV), amino acid present in BBItc-AV": "R (+/−)"},
      {"molecule": "N18M: BBIt-AV (SEQ ID NO:187) with single substitution N18M (protein, synthetic BBIt-AV sequence) DDESSKPCCDQCACTKSMPPQCRCSDMRLNSCHSACKSCACYNLYGWTCFCVDITDFCYEPCKPSE", "relative activity of the amino acid substitution (BBI:BCE activity ratio vs BBIt-AV), amino acid present in BBIsb3-AV": "M (+/−)"},
      {"molecule": "K37E: BBIt-AV (SEQ ID NO:187) with single substitution K37E (protein, synthetic BBIt-AV sequence) DDESSKPCCDQCACTKSNPPQCRCSDMRLNSCHSACESCACYNLYGWTCFCVDITDFCYEPCKPSE", "relative activity of the amino acid substitution (BBI:BCE activity ratio vs BBIt-AV), amino acid present in BBItc-AV": "E (+/−)"},
      {"molecule": "M27V: BBIt-AV (SEQ ID NO:187) with single substitution M27V (protein, synthetic BBIt-AV sequence) DDESSKPCCDQCACTKSNPPQCRCSDVRLNSCHSACKSCACYNLYGWTCFCVDITDFCYEPCKPSE", "relative activity of the amino acid substitution (BBI:BCE activity ratio vs BBIt-AV), amino acid present in BBIdb-AV": "V (+/−)"},
      {"molecule": "S25A: BBIt-AV (SEQ ID NO:187) with single substitution S25A (protein, synthetic BBIt-AV sequence) DDESSKPCCDQCACTKSNPPQCRCADMRLNSCHSACKSCACYNLYGWTCFCVDITDFCYEPCKPSE", "relative activity of the amino acid substitution (BBI:BCE activity ratio vs BBIt-AV), amino acid present in BBItc-AV": "A (+)"},
      {"molecule": "M27I: BBIt-AV (SEQ ID NO:187) with single substitution M27I (protein, synthetic BBIt-AV sequence) DDESSKPCCDQCACTKSNPPQCRCSDIRLNSCHSACKSCACYNLYGWTCFCVDITDFCYEPCKPSE", "relative activity of the amino acid substitution (BBI:BCE activity ratio vs BBIt-AV), amino acid present in BBIsb3-AV": "I (+/−)", "relative activity of the amino acid substitution (BBI:BCE activity ratio vs BBIt-AV), amino acid present in BBItc-AV": "I (+/−)"},
      {"molecule": "R23S: BBIt-AV (SEQ ID NO:187) with single substitution R23S (protein, synthetic BBIt-AV sequence) DDESSKPCCDQCACTKSNPPQCSCSDMRLNSCHSACKSCACYNLYGWTCFCVDITDFCYEPCKPSE", "relative activity of the amino acid substitution (BBI:BCE activity ratio vs BBIt-AV), amino acid present in BBIsb3-AV": "S (−−−) (the greater the number of “−”, the greater the difference.)"},
      {"molecule": "F50R: BBIt-AV (SEQ ID NO:187) with single substitution F50R (protein, synthetic BBIt-AV sequence) DDESSKPCCDQCACTKSNPPQCRCSDMRLNSCHSACKSCACYNLYGWTCRCVDITDFCYEPCKPSE", "relative activity of the amino acid substitution (BBI:BCE activity ratio vs BBIt-AV), amino acid present in BBIsb3-AV": "R (++) (the greater the number of “+”, the greater the difference.)", "relative activity of the amino acid substitution (BBI:BCE activity ratio vs BBIt-AV), amino acid present in BBItc-AV": "R (++) (the greater the number of “+”, the greater the difference.)"},
      {"molecule": "N18I: BBIt-AV (SEQ ID NO:187) with single substitution N18I (protein, synthetic BBIt-AV sequence) DDESSKPCCDQCACTKSIPPQCRCSDMRLNSCHSACKSCACYNLYGWTCFCVDITDFCYEPCKPSE", "relative activity of the amino acid substitution (BBI:BCE activity ratio vs BBIt-AV), amino acid present in BBIdb-AV": "I (+++) (the greater the number of “+”, the greater the difference.)", "relative activity of the amino acid substitution (BBI:BCE activity ratio vs BBIt-AV), amino acid present in BBItc-AV": "I (+++) (the greater the number of “+”, the greater the difference.)"},
      {"molecule": "S25E: BBIt-AV (SEQ ID NO:187) with single substitution S25E (protein, synthetic BBIt-AV sequence) DDESSKPCCDQCACTKSNPPQCRCEDMRLNSCHSACKSCACYNLYGWTCFCVDITDFCYEPCKPSE", "relative activity of the amino acid substitution (BBI:BCE activity ratio vs BBIt-AV), amino acid present in BBIsb3-AV": "E (−−−) (the greater the number of “−”, the greater the difference.)"}
    ]}
  ]
}
